Data published in US11510992 (dated 2022).

Biological target: Conjugate 45b (human, UniProt P0DOX5 203-448 = IgG part)
Experiment: ELISA

B1: murine Fcγ RIIb (receptor, mouse, UniProt P08101 30-210, looked up)
chain: THDLPKAVVKLEPPWIQVLKEDTVTLTCEGTHNPGNSSTQWFHNGRSIRSQVQASYTFKATVNDSGEYRCQMEQTRLSDPVDLGVISDWLLLQTPQLVFLEGETITLRCHSWRNKLLNRISFFHNEKSVRYHHYSSNFSIPKANHSHSGDYYCKGSLGRTLHQSKPVTITVQGPKSSRSLP
notes: also called mouse FcγR2B/CD32b
binding result: binds

B2: human Fcγ RIIb (receptor, UniProt P31994 43-217, looked up)
chain: TPAAPPKAVLKLEPQWINVLQEDSVTLTCRGTHSPESDSIQWFHNGNLIPTHTQPSYRFKANNNDSGEYTCQTGQTSLSDPVHLTVLSEWLVLQTPHLEFQEGETIVLRCHSWKDKPLVKVTFFQNGKSKKFSRSDPNFSIPQANHSHSGDYHCTGNIGYTLYSSKPVTITVQAP
binding result: binds
